In the supplement of paper PMC9170038:

Tested on: MS2 coat protein
Experiment: apparent KD of MS2 coat protein; designed switch direction (-1 OFF switch, 1 ON switch): 1; higher = weaker reporter binding
Outline: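 Each step of the titration lasted 0.8–1.5 h at the lowest concentration and 10–20 min at the highest. The protein, SNAP-549-labelled MS2 coat protein, went from 0.7 or 1.5 nM doubling to 3 µM over RNA switches transcribed on Illumina chips by stalled E. coli RNA polymerase. Normalised cluster fluorescence was curve-fitted, and the per-design median over clusters is given as apparent KD.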

[1] = Eterna round: R95, input ligand: FMN 200 uM
[2] = Eterna round: R95, input ligand: microRNA oligo, concentration not stated
[3] = Eterna round: R95, input ligand: none
[4] = input ligand: microRNA oligo, concentration not stated

Sequence	apparent KD of MS2 coat protein [1]	apparent KD of MS2 coat protein [2]	apparent KD of MS2 coat protein [3]	apparent KD of MS2 coat protein (input ligand: FMN 200 uM)	apparent KD of MS2 coat protein [4]	apparent KD of MS2 coat protein (input ligand: none)
ACAAGCUUUUUGCUCCUCUUAUGUCCGAAACAUGAGGAUCACCCAUGUAUAGAUUGUGUGUUGUUGUAGAUGCAAGA [JR_SHM208A_Sub061] (puzzle: Sensor for hsa-mir-208a)	69.3 nM	72 nM	71.8 nM			
AUAAAACAUGAGGAUCACCCAUGUCAACAAAGUCGAGGAUAUGGGCAAAUAAAAUAAGAACCAGAAGGCGAAUAAC [salish99_SS1_r3_003] (puzzle: Same State 1)		339 nM				
GCACUCCUAGGAGCUGCGACAUGAGGAUCACCCAUGUAAUCACAGGAUAUGCGAGUCCGAAUUUUGCAGAAGGGUGAUAAGAAC [Biesanarre] (Eterna round: R96, puzzle: Same State NG 3)				404 nM	52.3 nM	45.7 nM
AGAGGAGGAGCAGGAUAUUCGAAGAAGGACGUGGAAGAAGGGUUCAUGCGAUGACAUGAGGAUCACCCAUGUACCGCGCGAGGA [AK SSNG1-V2-12] (Eterna round: R96, puzzle: Same State NG 1)				63.4 nM	42.6 nM	69 nM
UGUAAACAUGAGGAUCACCCAUGUAAUAAUAUGGGAGGAUAUGGGAAUUAAUUAAUUAAACCAGAAGGCCUAAUGU [Mat - Same State 1 - D88] (puzzle: Same State 1)	30.9 nM	388 nM	280 nM			
GAGAAUCUAUCUCAGGAUAUCAUGUCAAAGACAUGAGGAUCACCCAUGUACCAGGAAACUGGUUAUGAGAAGGGAGAUAGAUUCG [Mat - Same State 2 - Mod - D36] (puzzle: Same State 2)	86.1 nM	111 nM	40.1 nM			
GCAGAACAUGAGGAUCACCCAUGUCUCAAAUAUUGAGGAUAUGGACACGGUAUAUCCGAACCAGAAGGCGAACUGC [SS1 Teenbexe 18] (puzzle: Same State 1)	66.1 nM	74.3 nM	53.3 nM			
AAAGAAACAUGAGGAUCACCCAUGUACCGCGGAAUGUGUGCACAGGAUAUGUACAGCUUUUGCUUACAGAAGGGUGCGCCCGUG [Enorso] (Eterna round: R96, puzzle: Same State NG 3)				20.8 nM	38.7 nM	70 nM
GGAGCCGGCACUGAGGAUAUUCAUAUUAAAACAUGAGGAUCACCCAUGUAGGCCAGAAGGCCUUGGGAGAAGGCGGGUCGACUCG [Diqureveri - 1] (puzzle: Same State 2)	29.7 nM	523 nM	371 nM			
GUGGUCAGACAUGAGGAUCACCCAUGUGGAAUAAAUAAGGAAAAGGAUAUCUAAUAUAGGAUAUAAGAGAAGGUUUGGUUGGUG (Eterna round: R96, puzzle: Same State NG 3)				74.1 nM	52.1 nM	64.7 nM
UUUGGGUGGCUGGAGGAUAUCCUGGUUGUUACAUGAGGAUCACCCAUGUGCCGCGCGGUGCGCUGGGAGAAGGCCGGCGGCCGUU (puzzle: Same State 2)	28.9 nM	61.1 nM	141 nM			
AGUCCAGCGAAAGCUGGACAAAAGCAUGUACAUGAGGAUCACCCAUGUUCAUGUACAAGCUUUUUGCUCGUCUUAAA [Zipper 52 - 13] (puzzle: Sensor for hsa-mir-208a)	486 nM	16.2 nM	588 nM			
